B1: Chymotrypsin-truncated Cry35Ab1 core protein (protein)
chain: MLDTNKVYEISNHANGLYAATYLSLDDSGVSLMNKNDDDIDDYNLKWFLFPIDDDQYIITSYAANNCKVWNVNNDKINVSTYSSTNSIQKWQIKANGSSYVIQSDNGKVLTAGTGQALGLIRLTDESSNNPNQQWNLTSVQTIQLPQKPIIDTKLKDYPKYSPTGNIDNGTSPQLMGWTLVPCIMVNDPNIDKNTQIKTTPYYILKKYQYWQRAVGSNVALRPHEKKSYTYEWGTEIDQKTTIINTLGFQINIDSGMKFDIPEVGGGTDEIKTQLNEELKIEYSHETKIMEKYQEQSEIDNPTDQSMNSIGFLTITSLELYRYNGSEIRIMQIQTSDNDTYNVTSYPNHQQALL
modifications: 125I-iodinated (Pierce Iodination Beads, Na125I) when used as the labeled ligand; positions not given; unlabeled when used as competitor
B2: Full-length Cry6Aa1 protein (protein)
chain: MIIDSKTTLPRHSLIHTIKLNSNKKYGPGDMTNGNQFIISKQEWATIGAYIQTGLGLPVNEQQLRTHVNLSQDISIPSDFSQLYDVYCSDKTSAEWWNKNLYPLIIKSANDIASYGFKVAGDPSIKKDGYFKKLQDELDNIVDNNSDDDAIAKAIKDFKARCGILIKEAKQYEEAAKNIVTSLDQFLHGDQKKLEGVINIQKRLKEVQTALNQAHGESSPAHKELLEKVKNLKTTLERTIKAEQDLEKKVEYSFLLGPLLGFVVYEILENTAVQHIKNQIDEIKKQLDSAQHDLDRDVKIIGMLNSINTDIDNLYSQGQEAIKVFQKLQGIWATIGAQIENLRTTSLQEVQDSDDADEIQIELEDASDAWLVVAQEARDFTLNAYSTNSRQNLPINVISDSCNCSTTNMTSNQYSNPTTNMTSNQYMISHEYTSLPNNFMLSRNSNLEYKCPENNFMIYWYNNSDWYNNSDWYNN
modifications: 125I-iodinated (Pierce Iodination Beads, Na125I) in the saturation assay; positions not given; unlabeled when used as competitor

How the values were obtained:
[1] = biological target: Brush border membrane vesicle (BBMV) preparation from midguts of third instars of the western corn rootworm (Diabrotica virgifera virgifera LeConte) (Diabrotica virgifera virgifera)
[2] = biological target: Brush border membrane vesicle (BBMV) preparation from midguts of third instars of the western corn rootworm (Diabrotica virgifera virgifera LeConte) (Diabrotica virgifera virgifera); experiment: Homologous competition: unlabeled Cry35Ab1 (0-5,000 nM) against 5 nM 125I-Cry35Ab1 on BBMV (0.1 mg/ml); remaining about 50% considered nonspecific

Binder	Kd [1] [nM]	binding site concentration Bmax (pmole/ug BBMV) [1]	percent of bound 125I-Cry35Ab1 displaced at approximately 100 nM unlabeled Cry35Ab1 [2] [%]
B1	11.7	5.19	> 50
B2	7.99	2.71	–
